The record followed here is patent publication US20240229081.

In this data set the test system is Nla type I-C Cascade-Cas3 in E. coli (Neisseria lactamica). The data set can be described thus: cell_activity. Conditions: PAM TTC; E. coli plasmid interference.

Consider “Nla native CRISPR spacer 1 crRNA ; spacer 1 target with TTC PAM, plasmid”, for which the activity is 1000 fold.
